Test: yeast display, Sf9 membrane polyspecificity reagent, FACS + sequencing; frameworks hold sequencing errors
Outline: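 Polyreactivity labels are assigned by the sorting gate from which each nanobody was recovered. The gates were low and high (top ~1%), set on anti-HA fluorescence for expression and streptavidin fluorescence for reagent binding. Before sorting, galactose-induced (36–48 hours) yeast display cells were stained for 1 hour at 4 °C with 10% biotinylated, detergent-solubilized Sf9 membrane reagent.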

Sequence | polyreactivity (PSR sort gate)
QVHLVESGGGLVQAGGSLRLSCAASGGTLYANAKGWYRQAPGKERELVATITSSSGSTSYADSVKGRFSISRDNAKNTVYLQKNSLKPEDTAVYYCAKDSHAQGPYRYIHYHHTGDYWGQGTQVTVSS | low polyreactivity
QVHLVESGGGLVQAGGSLRLSCAASGIIFDHYAMVWYRPAPGKERELVAAISTGGGNTYYADSLKGRFTISRDNAKNTVYLQMNSLKPEDTAVYYCNADVLWGRRWGDYYGYDYWGQGTQVTVSS | low polyreactivity
QVHLVESGGGLVQAGGSLRLSCAASGIIFEYNAMGWYRQAPGKERELVAAITSTDNTNYADSVKGRFTISRDNAKKTVYLQMNILIPEDTAVYYCNTDYWLSVVYAMDYWGQGTQVTVSS | low polyreactivity
QVHLVESGGGLVQAGGSLRLSCAASGIIFGRFTMGWYRQAPGKERELVAAITSSGITYYADSLKGRFTISRDNAKNTVYLQMNSLKPEDTAVSYCNADYSIPGYYWPFDYWGQGTQVTVSS | low polyreactivity
QVHLVESGGGLVQAGGSLRLSCAASGIIFVLYTMGWYRQAPGKERELVATINWGGGNTYYADSLKGRFTISRDNAKNTVYLQMNSLKPEDTAVYYCAAAYTWYGYSQAYYYWGQGTQVTVSS | low polyreactivity
QVHLVESGGGLVQAGGSLRLSCAASGIILYGYAMGWYRQAPGKERELVAAITKSGGSTYYADSVKGRFTISRDNAKNTVYLLMNSLKPEDTAVYYCAAKLWGIWYYGYRPDDYWGQGTQVTVSS | low polyreactivity
QVHLVESGGGLVQAGGSLRLSCAASGIPLYFYAMGWYRQAPGKERELVAAISRGGRTYYADSVKGRFTISRDNAKYTVYLQMNSLKPEDTAVYYCAARYTSEYSAFDYWGQGTQVTVSS | low polyreactivity
QVHLVESGGGLVQAGGSLRLSCAASGITFGYYAMGWYRQAPGKERELVAAISNSGRTYYADSVKGRFTISRDNAKNTVYLQMNSLKPEDTAVYYCADVDAYYDFYYWGQGTQVTVSS | low polyreactivity
QVHLVESGGGLVQAGGSLRLSCAASGITFNSYAMGWYRQAPGKERDLDASISWIGGSTYYADSVKGRFTISRDNAKNTVYLQINSLKPDDTAVYYCAVDKGTDYYYDVDYWGQGTQVTVSS | low polyreactivity
QVHLVESGGGLVQAGGSLRLSCAASGITFRFNAMGLSRQAPGKEMEFVAAITYSGDSTYYADSLKVRFTISRDNAKNSVYLHLKSVKPEDTAVYYCAAEYYAISRRIFYYWGQGTQVTVSS | low polyreactivity
QVHLVESGGGLVQAGGSLRLSCAASGITFRYYAMGWYRQAPGKERELVAVISTSGGSTYYADSVKGRFTISRDNAKNTVYLQMNSLKPEDTAVYYCAVVWPYSERYYYWGQGTQVTVSS | high polyreactivity
QVHLVESGGGLVQAGGSLRLSCAASGITLRVYVMGWYRQAPGKERELVAAITSRGDRTYYADSVKGRFTISRDNAKNTVYLQMNSLKPEDTAVYYCAASRWRDAGHSYDYWGQGTQVTVSS | high polyreactivity
QVHLVESGGGLVQAGGSLRLSCAASGITVGSYAMGWYRQAPGKERELVAAITSGGGTNYADSVKGRFTISRDNAKNTVYLEMKSLKPEDTAVYYCAARYYYLGTRYGYWGQGTQVTVSS | low polyreactivity
QVHLVESGGGLVQAGGSLRLSCAASGLIFTTNAMGWYRQAPGKERDFVAAISPSGGSTYYADSVKGRFTISRDNSKNTVYLQMNSLKPEDTAVYYCAARYSTVWHKYYYWGQGTQVTVSS | high polyreactivity
QVHLVESGGGLVQAGGSLRLSCAASGLIFYRYAMGWYRQAPGKERELVATISSGGSTNYADSVKGRFTISRDNAKNTVYLQMNSLKPEDTAVYYCAASRWLYYYLFEYWGQGTQGTVSS | high polyreactivity
QVHLVESGGGLVQAGGSLRLSCAASGLIIYRYAMGWYRQAPGKERELVAAITTNGARTYYADSVKGRFTISRDNAKNTVYLQMTSLIPEDTAVYYCAAYGAGKFWAEHNYWGLGTQVTVSS | high polyreactivity
QVHLVESGGGLVQAGGSLRLSCAASGLTFGRNAMGWYRQAPGKERELVAVISRSGGSTYYADSVKGRFTISRDNAQNTVYLQMNSLKPEDTAVYYCAAGAYSYRKYRSYDYWGQGTQVNVSS | high polyreactivity
QVHLVESGGGLVQAGGSLRLSCAASGLTFYPNAMGWYRQAPGKERELVAAITYSTGSTYADSVKGRFTITRDNAKNTVFLQMNSLKPEDSAVYDCAAYWSRVRYGMNYWGQGTQVTVSS | high polyreactivity
QVHLVESGGGLVQAGGSLRLSCAASGLTFYYYVMGWYRQAPGKERELVAAISYSGGRTYYADSVKGRFTISRDNAKNTVYLQMNSLKPEDTAVYYCAAQSRYGGKFYYWGQGTQVTVSS | high polyreactivity
QVHLVESGGGLVQAGGSLRLSCAASGRIFADYAMGWYRQAPWKERELVADIRQSGGRTYYADSVKGRFTISRDYAKNTVDLQMNSLKPEDTAVYYCATDYGSWGDYSGKYDYWGQGTQVTVSS | low polyreactivity
QVHLVESGGGLVQAGGSLRLSCAASGRIFAGYAMGWYRQAPGKERELVATITRGGSTNYADSVKRPFTISRDNAKNTVYLQMNSLKPEDTAVYYCADVTWYEEYDSWGQGTQVTVSS | low polyreactivity

Sequence | polyreactivity (PSR sort gate)
QVHLVESGGGLVQAGGSLRLSCAASGRIFAWYAMGWYRQAPGKERELVAAITWGGGRTYYADSVKGRFTISRDNAKNTVYLQMNSLKPEDSAFYYCNRDFDDEMWGQGTQVTVSS | low polyreactivity
QVHLVESGGGLVQAGGSLRLSCAASGRIFGDYAMGWYRQATGKERELVAAINSSGTSTNYADSVKGRFTFSRDNAKNTVYLQMNSLKPEDTAVYYCNAEGTYRPEYDSWGQGTQVTVSS | low polyreactivity
QVHLVESGGGLVQAGGSLRLSCAASGRIFGPYAMGWYRQAPGKERELVASISGGGSTNYADSVKGRFTISRDNAKNTVYLQMNSLKPEDTAVYYCAADVYYQYWGWWPYDYWGQGTQVTVSS | low polyreactivity
QVHLVESGGGLVQAGGSLRLSCAASGRIFHYNTMGWYRQAPGKERELVAAITSSGGSTYYADSVKGRFTISRDNAKNTVYLQMNSLKPEDTAVYYCNAVFYRYGFKVDYWGQGTQETVSS | high polyreactivity
QVHLVESGGGLVQAGGSLRLSCAASGRIFIYYAMGWYRQAPGKERELVAAISWCGGRTYYADSVKGRFTISRDNAKNTVYLQMNSLKPEDTAVYYCAAGVYTGQHEYDYWGQGTQVTVSS | low polyreactivity
QVHLVESGGGLVQAGGSLRLSCAASGRIFPKNGMGWYRQAPGTERDLVAAITSGTSTYYADSVKGRFTISRDNAKNTVYLQMNRLKPEDTAVYYCAARPTDGSGWPYRWTSDYWGQGTQVTVSS | low polyreactivity
QVHLVESGGGLVQAGGSLRLSCAASGRIFRKYAIGWYRQAPGKERELVAAISFSGTSTYYADSVKGRFTISRDNAKNTVYLQMNSLKPEDTAVYYCAAVYRQGTGYVDYDSWGQGTQVTVSS | low polyreactivity
QVHLVESGGGLVQAGGSLRLSCAASGRIFVFNAMGWYRQAPGKERELVAAINYRGGTYYADSVKGRFTISRDNAKNTVYLQMNSLKPEDTAVYYCNALRQKFQYHDNDYWGQGTQVTVSS | high polyreactivity
QVHLVESGGGLVQAGGSLRLSCAASGRIFVKYAMGCYRQAPGKERELVAAIRSGGSTYYADSVKGRFTISRDNAKNTVYLQMNSLKPEDTAVYYCAADRNKHHYYTEPYDYWGQGTQVTVSS | low polyreactivity
QVHLVESGGGLVQAGGSLRLSCAASGRIFVRYAMGWYRQAPGKERELVATISGGRTNYADSVKWRFTISRDNAKNSVYLQMNSLKPEDTAVYYCAVGSHSRSSNSYYYWGQGSQVTVSS | low polyreactivity
QVHLVESGGGLVQAGGSLRLSCAASGRISKLYAMGWYRQAHGKERDLVAAISSGGSTYYADSVKGRFTISRDNAKNTVYLQMNSLKPEDTAVYYCAVTQVMQYGIPYSYTRDYWGQGTQVTVSS | low polyreactivity
QVHLVESGGGLVQAGGSLRLSCAASGRISWGYAMGWDRQAPGKERELVAVINFNGGRTYYADSVKGRFTISRDNAKNTVYLQMNSLKPEDTAVYYCAADSGYEYDYWGQGTQVTVSS | low polyreactivity
QVHLVESGGGLVQAGGSLRLSCAASGRIYPYPMGWYRQAPGKERELVAAITSRGGTTYYADSVKGRFTISRDNAKNTDYVQMNSLKPEDTAVYYCNKRPWWWGGDDYWGQGTQVTVSS | low polyreactivity
QVHLVESGGGLVQAGGSLRLSCAASGRNFYTNVMGWSRQAPGKERELVAAISSGGGTTYYADSVKGRFTISRDNAKNTVYLQMNSLKPEDTAVYYCAADALSDEYDYWGQGTEVTVSS | low polyreactivity
QVHLVESGGGLVQAGGSLRLSCAASGRSFRRNARGWYRQAPGKERELVATISSGGTTKYADSVKGRFTISRDNAKYTVYLQMNNLKPEDTAVYYCNADLNRRTYGPDSYYWGQGNQVTVSS | high polyreactivity
QVHLVESGGGLVQAGGSLRLSCAASGRTFASNPMGWYRQAPGKERELVAAISARGGSTYYADSVKGRFTISRDNAKNTVYLQMNSLKPEDTAVYYCAAYLGYPYGRDYWGQGTQVTVSS | high polyreactivity
QVHLVESGGGLVQAGGSLRLSCAASGRTFFWYVMGWYRQAPGKERELVATISYGGITYYADSVKGRFTISRDNAKNTVYLQMNSLKPEDTAVYYCAARRSLYYSTVKFDGYYYWGQGTQVTVSS | high polyreactivity
QVHLVESGGGLVQAGGSLRLSCAASGRTFGWNVMGWYRQAPGTERELVAAISGSGGSTYYADSVKGRFTISRDNAKNTVYLQMNSLKPEDTAVYYCAALYGPGREYDYWGQGTQVTVSS | low polyreactivity
QVHLVESGGGLVQAGGSLRLSCAASGRTFIYYAMGWYRQAPGKERELVASITTGGRTYYADSVKGRFTISRDNAKNTVYLQMNSLKPEDSAVYYCAAEPHFFWYYHYVYGEHDYWGQGTQVTVSS | high polyreactivity
QVHLVESGGGLVQAGGSLRLSCAASGRTFKYYAMGWYRQAPGKERELVAAISSRGGSTYYADSVKGRFTISRDNAKNTVYLQMNSLKPEDTAVYYCAKGTYLSTSTVANDYWGQGTQGTVSS | high polyreactivity

From the nanobody polyreactivity screen of Harvey et al. (2022)
